In experiment [1] the target is Der p 1 (house dust mite) (UniProt P08176). The experiment is described as follows: barcoded antigen sequencing of single IgE PCs with trapped IgE.
Experiment [2] has as its target Ole e 1 (olive) (UniProt P19963). The description is as above.
Experiment [3] addresses Der f 1 (house dust mite) (UniProt P16311). Described as above.
Experiment [4] concerns the target Der p 2 (house dust mite) (UniProt P49278). Described as above.
For experiment [5], the target named is Der p 1 (house dust mite) (UniProt P08176). The experiment is described as follows: antigen specificity score against Ole e 1 from barcode counts of single IgE PCs [cont.].
In experiment [6] the target is Der f 1 (house dust mite) (UniProt P16311). Described as above.
Der f 1 (house dust mite), sequence (P16311 99-321 limits assumed): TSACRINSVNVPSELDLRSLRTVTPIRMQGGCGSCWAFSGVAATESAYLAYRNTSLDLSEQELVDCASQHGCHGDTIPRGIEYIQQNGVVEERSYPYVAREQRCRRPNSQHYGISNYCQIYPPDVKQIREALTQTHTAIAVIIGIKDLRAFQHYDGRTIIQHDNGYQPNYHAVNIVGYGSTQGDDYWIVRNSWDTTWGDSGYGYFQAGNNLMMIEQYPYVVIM
Experiment [7] has as its target Der p 2 (house dust mite) (UniProt P49278). The experiment is described as above.
In experiment [8] the target is Der p 1 (house dust mite) (UniProt P08176). The experiment is described as follows: barcoded antigen sequencing of single IgE PCs with trapped IgE [cont.].
In experiment [9] the target is Ole e 1 (olive) (UniProt P19963). The description is as above.
Ole e 1 (olive), sequence (P19963 whole entry): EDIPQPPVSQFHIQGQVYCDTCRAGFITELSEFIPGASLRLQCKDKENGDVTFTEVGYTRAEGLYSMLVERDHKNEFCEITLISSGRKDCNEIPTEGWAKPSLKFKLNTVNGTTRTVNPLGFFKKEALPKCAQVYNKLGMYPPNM
In experiment [10] the target is Der f 1 (house dust mite) (UniProt P16311). The experiment is described as above.
The target in experiment [11] is Der p 2 (house dust mite) (UniProt P49278). The description is as above.
Der p 2 (house dust mite), sequence (P49278 18-146 limits assumed): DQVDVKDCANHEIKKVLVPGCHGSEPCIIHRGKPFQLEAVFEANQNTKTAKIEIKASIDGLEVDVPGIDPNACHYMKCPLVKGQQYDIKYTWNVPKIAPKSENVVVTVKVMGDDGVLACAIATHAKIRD
Experiment [12] concerns the target Der p 1 (house dust mite) (UniProt P08176). The experiment is described as follows: centered log-ratio of barcode count.
Experiment [13] deals with Der f 1 (house dust mite) (UniProt P16311). The experiment is described as follows: centered log-ratio of barcode count.
Experiment [14] addresses Der p 1 (house dust mite) (UniProt P08176). Description: barcoded-antigen count on source cell.
Experiment [15] deals with Der f 1 (house dust mite) (UniProt P16311). Description: barcoded-antigen count on source cell.
Experiment [16] concerns the target Der p 1 (house dust mite) (UniProt P08176). Description: barcode rank score against control Ole e 1.
The target in experiment [17] is Der f 1 (house dust mite) (UniProt P16311). The experiment is described as follows: barcode rank score against control Ole e 1.

Der p 1 (house dust mite), sequence (P08176 99-320 limits assumed): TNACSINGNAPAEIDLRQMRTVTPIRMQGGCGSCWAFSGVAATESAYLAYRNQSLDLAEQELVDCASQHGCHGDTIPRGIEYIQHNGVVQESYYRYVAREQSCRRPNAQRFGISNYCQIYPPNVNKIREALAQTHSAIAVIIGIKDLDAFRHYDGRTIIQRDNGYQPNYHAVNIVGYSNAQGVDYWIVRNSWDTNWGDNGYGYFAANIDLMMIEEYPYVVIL

B1: Candidate ID 7 (antibody, V domains shown)
VH: QVLLKESGPGLVAPSQSLSITCTVSGFSLTSYGVSWVRQPPGKGLEWLGVIWGDGNTDYHSALISRLSIRKDNSKSQVFLKLNSLQTDDTATYYCAIGSPFAYWGQGTLVTVSA
VL: DVLMTQTPLSLPVSLGDQVSISCRSSQNIVHSTGNTYLEWYLQKPGQSPKLLIFKVSNRLSGVPDRFSGSGSGTDFTLNISRVEAADLGIYSCFQGSHVPFTFGSGTKLEIK
B1: the Raw Antigen Barcode Count was 29 in experiment [1], 0 in experiment [2], 32 in experiment [3] and 22 in experiment [4]. Moreover, the Antigen Score was determined as 0.89 in [5], 0.97 in experiment [6] and 0.837 in experiment [7]. The Normalized Barcode Count in experiment [8] is 0.862; in [9], -1.13; in experiment [10], 1.18; in experiment [11], 0.655.

B2: Candidate ID 13 (antibody, V domains shown)
VH: QAYLQQSGAELVRPGASVKMSCKASGYTFISYNMHWVKQTRRQGLEWIGAIYPGNGDTSYNQKFKGKATLTVDKSSSTAYMQLSSLTSEDSAVYFCARWDYYGSSYGAYWGQGTLVTVSA
VL: DIQMTQSPASLSVSVGETVTITCRASENIYSNLAWYQQKQGKSPQLLVYAATNLADGVPSRFSGSGSGTQYSLKINSLQSEDFGSYYCQHFWGTPWTFGGGTKLEIK
In turn, B2 registered a Raw Antigen Barcode Count in [2] of 1. For the same molecule, in [9], the Normalized Barcode Count is -0.434.

B3: Candidate ID 16 (antibody, V domains shown)
VH: EVHLQQSGPDLVKPGASVMISCQASGYSFTAYYINWVKQSPEKSLEWIGEINPGSGGVIYNRKFEAKATLIVDKSSNTAFMLLTRLTSEDSAIYYCARKGFYQFDYWGQGTTLTVSS
VL: SVVMTQIPKFLVVSAGDRVTITCKASQSVNDGVFWYQQKTGQSPKLVIYHTSNRYTGVSDRFTGSGYGTEFTFTISAVQSEDLAIYFCQQDYTSPLTFGGGTRLEIK
Regarding B3, the Raw Antigen Barcode Count in experiment [2] was 3. The same molecule came in with a Normalized Barcode Count in experiment [9] of 0.603.

B4: Candidate ID 9 (antibody, V domains shown)
VH: EVQLQQSGPELVKPGASVKISCKASGYTFTDYYMNWVKQSHGKSLEWIGDINPNNGGTSYNQKFKGKATLTVDKSSSTAYMELRSLTSEDSAVYYCAYGPPRGPPWFAYWGQGTLVTVSA
VL: DIVLTQSPASLAVSLGQRATISCRASKSVSTSGYSYMHWYQQKPGQPPKLLIYLASNLESGVPARFSGSGSGTDFTLNIHPVEEEDAATYYCQHSRELPWTFGGGTKLEIK
In the case of B4, the Raw Antigen Barcode Count in experiment [1] was determined as 16; in experiment [2] it was 1; in experiment [3] it was 15; in experiment [4] it was 46. The Antigen Score in [5] is 0.775; in experiment [6], 0.765; in experiment [7] it was 0.858. Besides, the Normalized Barcode Count in experiment [8] stood at 0.981; in [9], 0.029; in experiment [10] it was 0.82; in experiment [11], 1.62.

B5: IgE mAb 13_2 (antibody, V domains shown)
VH: EVQLQQSGPELVKPGASVKISCKASGYTFTDYYMNWVKQSHGKSLEWIGDINPNNGGTSYNQKFKGKATLTVDKSSSTAYMELRSLTSEDSAVYYCAYGPPRGPPWFAYWGQGTLVTVSA
VL: DIVLTQSPASLAVSLGQRATISCRASKSVSTSGYSYMHWYQQKPGQPPKLLIYLASNLESGVPARFSGSGSGTDFTLNIHPVEEEDAATYYCQHSRELPWTFGGGTKLEIK
Regarding B5, the Derp1 ab clr in experiment [12] worked out at 0.981. Also, in experiment [13], the Derf1 ab clr is 0.82. In [14], this molecule displayed a Derp1 ab raw of 16 counts. The molecule also displayed a Derf1 ab raw in experiment [15] of 15 counts. Also, the Derp1 ab rank in [16] is 0.775. The Derf1 ab rank in experiment [17] turned out to be 0.765.

B6: Candidate ID 21 (antibody, V domains shown)
VH: QVQLQQSGPELVKPGASVKISCKAPGNAFSYSWMNWVKQRPGKGLEWVGRIYPGDGDTNYNGKFMGKATLTADKSSNTAYIQLSSLTSEDSAVYFCARSGGGTLYWYFDVWGTGTTVTVSS
VL: DIVMTQSPSSLALSVGQKVTMNCRSSQSLLNSFNQKNYLAWFQQKPGQSPRLLIYFASTRESGVPDRFIGSGSGTDFTLTISSVQAEDLADYFCQQHYNTPLTFGAGTTLELK
Take B6: the Raw Antigen Barcode Count in [2] turned out to be 4. In addition, the Normalized Barcode Count in experiment [9] is 0.826.

The values are drawn from US20230349919A1.
